Measurements published in paper PMC10702411.

Assays:
[1] = target: third BIR domain of BIRC2 (BIRC2_(BIR3)), GST cleaved (human) (UniProt Q13490); assay: other fluorescence titration
[2] = target: C-terminal fluorescein-labeled H3 peptide (1–12) (UniProt P68431); assay: MST

third BIR domain of BIRC2 (BIRC2_(BIR3)), GST cleaved (human), sequence (Q13490 261-346): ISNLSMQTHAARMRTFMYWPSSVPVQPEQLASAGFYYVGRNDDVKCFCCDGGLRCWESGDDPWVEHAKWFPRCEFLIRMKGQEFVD

Kd [1] [nM] | Kd [2] [nM] | Substance
400 | – | H3_(1–12) peptide (residues 1–12 of H3) (from UniProt P68431 2-13)
– | 340 | third BIR domain of BIRC2 (BIRC2_(BIR3)), GST cleaved (from UniProt Q13490 261-346) (domain or fragment)
